Data from IntAct's records for PubMed 15634206.

B1: Regulatory protein NPR4 (Arabidopsis thaliana (Mouse-ear cress)), Q5ICL9 (parent)
chain: MAATAIEPSSSISFTSSHLSNPSPVVTTYHSAANLEELSSNLEQLLTNPDCDYTDAEIIIEEEANPVSVHRCVLAARSKFFLDLFKKDKDSSEKKPKYQMKDLLPYGNVGREAFLHFLSYIYTGRLKPFPIEVSTCVDSVCAHDSCKPAIDFAVELMYASFVFQIPDLVSSFQRKLRNYVEKSLVENVLPILLVAFHCDLTQLLDQCIERVARSDLDRFCIEKELPLEVLEKIKQLRVKSVNIPEVEDKSIERTGKVLKALDSDDVELVKLLLTESDITLDQANGLHYAVAYSDPKVVTQVLDLDMADVNFRNSRGYTVLHIAAMRREPTIIIPLIQKGANASDFTFDGRSAVNICRRLTRPKDYHTKTSRKEPSKYRLCIDILEREIRRNPLVSGDTPTCSHSMPEDLQMRLLYLEKRVGLAQLFFPAEANVAMDVANVEGTSECTGLLTPPPSNDTTENLGKVDLNETPYVQTKRMLTRMKALMKTVETGRRYFPSCYEVLDKYMDQYMDEEIPDMSYPEKGTVKERRQKRMRYNELKNDVKKAYSKDKVARSCLSSSSPASSLREALENPT
partner: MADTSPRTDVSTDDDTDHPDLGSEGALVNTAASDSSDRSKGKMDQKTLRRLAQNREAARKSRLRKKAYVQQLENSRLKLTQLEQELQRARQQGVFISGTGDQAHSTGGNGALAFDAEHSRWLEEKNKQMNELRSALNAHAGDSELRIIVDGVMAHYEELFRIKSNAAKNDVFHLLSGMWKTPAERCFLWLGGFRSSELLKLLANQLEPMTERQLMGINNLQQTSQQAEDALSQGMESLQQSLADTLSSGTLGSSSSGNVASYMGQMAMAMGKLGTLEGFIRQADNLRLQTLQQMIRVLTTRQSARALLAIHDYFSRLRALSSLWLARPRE
B2: Regulatory protein NPR4 (Arabidopsis thaliana (Mouse-ear cress)), Q5ICL9 (parent)
chain: B1 chain
partner: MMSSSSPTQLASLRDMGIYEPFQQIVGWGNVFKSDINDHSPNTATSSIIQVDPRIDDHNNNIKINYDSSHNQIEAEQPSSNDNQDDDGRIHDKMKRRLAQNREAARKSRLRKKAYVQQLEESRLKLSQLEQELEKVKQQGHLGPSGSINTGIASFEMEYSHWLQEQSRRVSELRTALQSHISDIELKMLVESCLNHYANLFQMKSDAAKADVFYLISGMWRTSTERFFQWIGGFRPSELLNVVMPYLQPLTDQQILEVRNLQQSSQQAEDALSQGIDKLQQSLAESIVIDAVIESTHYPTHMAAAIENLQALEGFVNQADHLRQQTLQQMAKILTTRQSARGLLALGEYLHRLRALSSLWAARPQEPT

Variants of: B1
Conditions: with tga2_arath TGA2, P43273

| effect of a mutation on the interaction | Variant |
| --- | --- |
| disrupting interaction | H321Y |

Variants of: B2
Conditions: with tga7_arath TGA7, Q93ZE2

| effect of a mutation on the interaction | Variant |
| --- | --- |
| disrupting interaction | H321Y |
